Test results from patent US9616120B2, “Monoclonal antibodies directed to CD20” (VET THERAPEUTICS, INC., priority 2010, dated 2017).

T1: recombinant canine CD20 expressed in HEK cells (Canis lupus familiaris, UniProt Q3C2E2, A201T/C77Y/G273E/L198V)
T1 construct: expressed in transfected cells; host or cells: HEK cells
T1 sequence (Q3C2E2 1-297 C77Y/L198V/A201T/G273E): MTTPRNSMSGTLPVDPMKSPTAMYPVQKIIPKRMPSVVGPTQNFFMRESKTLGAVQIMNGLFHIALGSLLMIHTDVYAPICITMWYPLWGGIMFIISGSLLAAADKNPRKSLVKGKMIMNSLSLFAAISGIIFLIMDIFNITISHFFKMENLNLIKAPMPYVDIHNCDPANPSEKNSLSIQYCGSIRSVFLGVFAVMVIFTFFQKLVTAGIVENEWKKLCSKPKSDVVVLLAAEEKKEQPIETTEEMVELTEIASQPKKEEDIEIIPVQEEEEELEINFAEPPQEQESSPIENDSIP

T2: recombinant canine CD20 (Canis lupus familiaris, UniProt Q3C2E2, A201T/C77Y/G273E/L198V)
T2 construct: are transfected with an expression vector encoding the full-length canine CD20 protein; expressed in transfected cells; host or cells: CHO cells (CHO-DG44)
T2 sequence (Q3C2E2 1-297 C77Y/L198V/A201T/G273E): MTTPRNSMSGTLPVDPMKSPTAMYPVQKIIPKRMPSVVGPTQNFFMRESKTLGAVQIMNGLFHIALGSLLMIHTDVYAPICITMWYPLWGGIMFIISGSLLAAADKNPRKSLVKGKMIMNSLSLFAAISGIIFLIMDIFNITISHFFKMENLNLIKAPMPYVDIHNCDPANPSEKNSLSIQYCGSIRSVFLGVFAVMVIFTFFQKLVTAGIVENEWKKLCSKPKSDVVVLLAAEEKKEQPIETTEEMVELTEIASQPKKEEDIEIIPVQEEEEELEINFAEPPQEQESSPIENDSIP

T3: recombinant canine CD20 expressed in CHO cells (Canis lupus familiaris, UniProt Q3C2E2, A201T/C77Y/G273E/L198V)
T3 construct: are transfected with an expression vector encoding the full-length canine CD20 protein; expressed in transfected cells; host or cells: CHO cells (CHO-DG44)
T3 sequence (Q3C2E2 1-297 C77Y/L198V/A201T/G273E): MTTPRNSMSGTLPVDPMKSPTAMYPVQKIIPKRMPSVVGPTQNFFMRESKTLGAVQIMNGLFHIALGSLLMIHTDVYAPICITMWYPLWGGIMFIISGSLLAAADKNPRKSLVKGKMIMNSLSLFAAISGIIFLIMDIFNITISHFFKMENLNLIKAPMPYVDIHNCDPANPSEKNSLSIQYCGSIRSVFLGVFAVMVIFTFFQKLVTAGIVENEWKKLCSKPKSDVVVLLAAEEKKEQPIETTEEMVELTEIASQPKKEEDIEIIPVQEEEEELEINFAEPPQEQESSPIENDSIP


Columns and labels:
canine B cells = settings: Veterinary Journal, 2006, vol 171, 556; cited from earlier work
[1] = target: T1, recombinant canine CD20 expressed in HEK cells; assay: FACS binding to cells expressing recombinant canine CD20; settings: for mean fluorescence, Canine CD20: antibody 2.5 μg/mL
Experimental: (§1) The binding of the antibody variants of the present invention raised to canine CD20 can be assessed by FACS analysis for their binding to feline CD20 according to standard immunological techniques (see Veterinary Immunology and Immunopathology 2005, 106:179-196; Brousseau et al., Manual of Immunology Methods, CRC Press, 1998). In the present example, the antibody variants (2.5 μg/mL) are incubated with mammalian cells expressing the recombinant feline CD20 or canine CD20 or control cells. The amount of bound antibody is assessed by detection with a fluorescent-labeled reporter antibody reagent. Several controls are utilized to determine the background fluorescence: (i) CD20 expressing cells are incubated with the conjugated secondary antibody with an isotype antibody, and (ii) Control cells are incubated with the anti-CD20 antibodies.

[2] = Tolerability of weekly dosing; format: in vivo; settings: weekly dose over 4 weeks
[3] = Half-life of recombinant anti-canine CD20 antibody in beagle dogs (plasma ELISA); format: in vivo
Experimental: The half-life of the recombinant anti-canine CD20 antibody are assessed. In this example, the half-life of antibody CD20-2 (VET305) is assessed by dosing beagle dogs intravenously. Blood is collected for analysis of CD20-2 in plasma samples harvested as whole blood treated with Ethylenediaminetetraacetic acid (EDTA) as the anticoagulant. An enzyme linked immunosorbant assay (ELISA) method is utilized to determine the plasma antibody concentrations. In this assay, a 96-well plate is coated with a rabbit polyclonal antibody raised to the variable domain of the antibody CD20-2. The antibody CD20-2 in standards or in samples is captured by the polyclonal antibody and is detected by an enzyme conjugated anti-dog secondary antibody. A non-linear regression fit of the standards is used to determine the recombinant antibody concentrations in plasma.

Control Cells = assay: FACS binding to control cells; settings: antibody 2.5 μg/mL
Experimental: In the present example, the antibody variants (2.5 μg/mL) are incubated with mammalian cells expressing the recombinant feline CD20 or canine CD20 or control cells. The amount of bound antibody is assessed by detection with a fluorescent-labeled reporter antibody reagent. Several controls are utilized to determine the background fluorescence: (i) CD20 expressing cells are incubated with the conjugated secondary antibody with an isotype antibody, and (ii) Control cells are incubated with the anti-CD20 antibodies.

recombinant canine CD20 = target: T2, recombinant canine CD20; assay: Competition experiments (epitope mapping) on CHO cells expressing recombinant canine CD20; format: binding; settings: unlabelled competitor 25 μg/mL; for percentage of inhibition (PI), labeled antibody CD20-1: biotin-labeled CD20-1 2 μg/mL; for percentage of inhibition (PI), labeled antibody CD20-2: biotin-labeled CD20-2 2 μg/mL; for percentage of inhibition (PI), labeled antibody CD20-5: biotin-labeled CD20-5 2 μg/mL
Experimental: Competition experiments are performed using standard techniques. Briefly, biotinylated recombinant anti-canine CD20 antibodies are titrated on CHO cells expressing recombinant canine CD20. Cells are first incubated with an excess of unlabelled recombinant anti-canine CD20 antibody (25 μg/mL). Thereafter, cells are incubated with a biotin-labeled antibody at 2 μg/mL. After washing, cells are incubated with streptavidin- phycoerythrin and fluorescence is analyzed by flow cytometry. An irrelevant antibody is used as negative control for inhibition. Results are expressed as a ratio between fluorescence intensity of the cells pre-incubated with the unlabelled antibody and the fluorescence intensity obtained for each biotinylated antibody alone. The percentage of inhibition (PI) is calculated by the following formula: PI=[1−(Experimental-Background)/Biotinylated antibody alone−Background)]×100%.

[4] = test system: B lymphocyte cell population; assay: Depletion of B cells in vivo (CD21 flow cytometry); set-up: species or system beagle dogs; settings: three consecutive doses 2.4 mg/kg to 5.0 mg/kg
Experimental: Three beagle dogs receive three consecutive dosages of the antibody CD20-2 (VET305) ranging from […] to 5.0 mg/kg every 5 days. Blood samples drawn at several time points are centrifuged at 2000 RPM for 5 min. Plasma is removed for assay of the antibody levels. The pellet containing peripheral blood leukocytes and red blood cells is resuspended in a plasma equivalent volume of phosphate saline solution (Dulbecco's Phosphate-Buffered Saline, Mediatech, Cat No. 21-030-CM) for quantitation of lymphocyte populations by flow cytometry. A 0.1 mL volume of the cell preparation is distributed into micro-centrifuge tubes. Labeled monoclonal antibody with specificity for the canine lymphocyte surface marker CD21 is added to the vial to identify the B lymphocyte cell population. An additional sample is included with no reagents for determination of autofluorescence. Cells are incubated with the fluorescent antibody for 30 min. Red blood cell were then lyzed for 15 min using a lysis buffer (Red Blood Cell Lysis Buffer, Biolegend,Cat No. 420301) and then washed prior to analysis on a Becton Dickinson FACS instrument.

[5] = test system: feline CD20 expressed in mammalian cells; assay: FACS binding to cells expressing recombinant feline CD20; settings: for mean fluorescence, Feline CD20: antibody 2.5 μg/mL; for binding to feline CD20 (in words): mammalian cells
Chain of feline CD20 expressed in mammalian cells (as listed by the source): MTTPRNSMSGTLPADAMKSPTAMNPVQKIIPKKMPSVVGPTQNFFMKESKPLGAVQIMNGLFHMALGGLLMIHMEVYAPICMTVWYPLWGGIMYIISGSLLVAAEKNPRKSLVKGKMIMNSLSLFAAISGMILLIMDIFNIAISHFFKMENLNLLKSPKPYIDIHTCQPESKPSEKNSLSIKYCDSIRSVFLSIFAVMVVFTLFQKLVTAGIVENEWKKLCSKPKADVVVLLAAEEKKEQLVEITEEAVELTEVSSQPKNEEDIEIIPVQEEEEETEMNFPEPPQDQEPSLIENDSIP
Experimental: as §1

[6] = target: T3, recombinant canine CD20 expressed in CHO cells; assay: Binding affinity to recombinant canine CD20 expressed in CHO cells by FACS; settings: CHO cells expressing canine CD20
Experimental: The antibody variants of the present invention are compared for their binding affinity to canine CD20. Binding affinity is assessed by measuring binding to the recombinant canine CD20 expressed in CHO cells by FACS analysis as described above.

[7] = multiple doses 2.0 to 5.0 mg/kg

| Molecule | reactivity with canine B cells (canine B cells) | binding to recombinant canine CD20 (in words) [1] | mean fluorescence, Canine CD20 [1] [mean fluorescence units] | adverse effects on clinical and behavioral observations or body weights [2] | tolerability [2] | change of half-life values ([3]; consecutive administration) | elimination half life [3, 7] | plasma antibody concentrations (in words) [3, 7] | volume of distribution [3, 7] | plasma antibody concentrations (in words) ([3]; single dose 2.4 mg/kg) | mean fluorescence, Control Cells (Control Cells) [mean fluorescence units] | percentage of inhibition (PI), labeled antibody CD20-1 (recombinant canine CD20) [%] | percentage of inhibition (PI), labeled antibody CD20-2 (recombinant canine CD20) [%] | percentage of inhibition (PI), labeled antibody CD20-5 (recombinant canine CD20) [%] | duration of depletion after the last dose [4] | B lymphocyte cell percentage after treatment ([4]; every 5 days) | mean fluorescence, Feline CD20 [5] [mean fluorescence units] | binding to feline CD20 (in words) [5] | Kd [6] [nM] |
| --- | --- | --- | --- | --- | --- | --- | --- | --- | --- | --- | --- | --- | --- | --- | --- | --- | --- | --- | --- |
| Rituximab: a monoclonal antibody to the human CD20 antigen | does not react with canine B cells |  |  |  |  |  |  |  |  |  |  |  |  |  |  |  |  |  |  |
| CD20-2: anti-canine CD20 antibody; full length HC SEQ ID NO. 38, LC SEQ ID NO. 39 (antibody, canis familiaris/mus musculus, anti-canine CD20 antibody; 39) heavy: QVQLQQSRAELVRPGASVTLSCKPSGYTFTDYEVHWVKQTPVHGLEWIGAIDPETGGTADNQKFKGKAILTADKSSSTAYMELRSLTSEDSAVYYCTNFVDVWGTGTTVTVSSASTTAPSVFPLAPSCGSQSGSTVALACLVSGYFPEPVTVSWNSGSLTSGVHTFPSVLQSSGLYSLSSMVTVPSSRWPSETFTCNVAHPASKTKVDKPVPKRENGRVPRPPDCPKCPAPEMLGGPSVFIFPPKPKDTLLIARTPEVTCVVVDLDPEDPEVQISWFVDGKQMQTAKTQPREEQFNGTYRVVSVLPIGHQDWLKGKQFTCKVNNKALPSPIERTISKARGQAHQPSVYVLPPSREELSKNTVSLTCLIKDFFPPDIDVEWQSNGQQEPESKYRTTPPQLDEDGSYFLYSKLSVDKSRWQRGDTFICAVMHEALHNHYTQKSLSHSPGK light: DVVMSQSPSSLAVSVGEKVTMSCKSSQSLLYSGNQKNYLAWYQQKPGQSPRLLIYWASTRESGVPDRFTGSGSGTDFTLTISSVKAEDLAVFYCQQYYNYPLTFGGGTHLTVLGQPKASPSVTLFPPSSEELGANKATLVCLISDFYPSGVTVAWKADGSPITQGVETTKPSKQSNNKYAASSYLSLTPDKWKSHSSFSCLVTHEGSTVEKKVAPAECS |  | effective binding | 2340 | no adverse effects | well tolerated locally and systemically | increase after consecutive administration | one week | increases overtime and persists at significant levels | approximating plasma volume | high plasma antibody concentrations are achieved in all animals | 49 | 0.90 | 124.33 | 3.69 | at least 10 days | decrease in-B lymphocyte cell percentage | 2209 | bind feline CD20 |  |
| CD20-5: anti-canine CD20 antibody; full length HC SEQ ID NO. 40, LC SEQ ID NO. 41 (antibody, canis familiaris/mus musculus, anti-canine CD20 antibody; 41) heavy: QVQLKQSGAELVKPGASVKISCKASGYTFTDYYINWVKQRPGQGLEWIGKIGPRSGSIYYNEKFKGKATLTADKSSSTAYMQLRSLTSEDSAVYFCAVLKWGQGTLVTVSSASTTAPSVFPLAPSCGSQSGSTVALACLVSGYFPEPVTVSWNSGSLTSGVHTFPSVLQSSGLYSLSSMVTVPSSRWPSETFTCNVAHPASKTKVDKPVPKRENGRVPRPPDCPKCPAPEMLGGPSVFIFPPKPKDTLLIARTPEVTCVVVDLDPEDPEVQISWFVDGKQMQTAKTQPREEQFNGTYRVVSVLPIGHQDWLKGKQFTCKVNNKALPSPIERTISKARGQAHQPSVYVLPPSREELSKNTVSLTCLIKDFFPPDIDVEWQSNGQQEPESKYRTTPPQLDEDGSYFLYSKLSVDKSRWQRGDTFICAVMHEALHNHYTQKSLSHSPGK light: DAVMTQIPLTLSVTIGQPASISCKSSQSLLHSDGKTYLNWLLQRPGQSPKRLIYLVSKLDSGVPDRFTGSGSGTDFTLKISRVEAEDLGVYYCWQGTHFPQTFGGGTHLTVLGQPKASPSVTLFPPSSEELGANKATLVCLISDFYPSGVTVAWKADGSPITQGVETTKPSKQSNNKYAASSYLSLTPDKWKSHSSFSCLVTHEGSTVEKKVAPAECS |  | effective binding | 2769 |  |  |  |  |  |  |  | 215 | 107.07 | 6.47 | 85.88 |  |  | 2048 | bind feline CD20 | 1.2 |
